Assay results published in EP3470428A1.

Columns and labels:
[1] = target: human PD-L1-Fc chimeric protein (human) (UniProt Q9NZQ7); assay: SPR (Biacore T200); PD-L1-Fc captured by anti-human Fc
[2] = target: human CD137-Fc chimeric protein (human) (UniProt Q07011); assay: SPR (Biacore T200); CD137-Fc captured by anti-human Fc
Sequence of human CD137-Fc chimeric protein (human) (Q07011 24-186, change not shown): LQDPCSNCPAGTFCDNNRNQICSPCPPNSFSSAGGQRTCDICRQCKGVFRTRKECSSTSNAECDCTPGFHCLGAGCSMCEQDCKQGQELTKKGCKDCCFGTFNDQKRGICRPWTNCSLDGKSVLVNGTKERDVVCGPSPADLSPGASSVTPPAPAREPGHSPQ

| fold improvement in affinity against the CDR graft (PRO885) [1] | fold improvement of affinity against PRO885 [2] | Binder |
| --- | --- | --- |
| 20 fold | – | PRO1126: 38-02-A04 sc01 scDb-i/33_03_G02 sc03 Full scDb-o (bispecific antibody) DFQLTQSPSSLSASVGDRVTITCQASQSINDYLAWYQQKPGKSPKLLIYKASTLASGVPSRFSGSGSGTDFTLTISSLQPEDFATYYCQQGYIITDIDNVFGTGTKVTVLGGGGGSQVQLQESGPGLVKPSETLSLTCKVSGFSFSNSYWICWIRQPPGKGLEWIGCTFVGSSDSTYYANWAKGRVTISVDSSKNQFSLKLSSVTAADTAVYYCARHPSDAVYGYANNLWGQGTLVTVSSGGGGSGGGGSGGGGSGGGGSIQMTQSPSSLSASVGDRVTITCQASQSINNVLAWYQQKPGKAPKLLIYRASTLASGVPSRFSGSGSGTDFTLTISSLQPEDFATYYCQSSYGNYGDFGTGTKVTVLGGGGGSQSQLQESGPGLVKPSETLSLTCKASGFSFSSGYDMCWVRQPPGKGLEWIACVVAGSVDITYYASWAKGRVTISKDSSKNQVSLKLSSVTAADTAVYFCARKDAYSDAFNLWGQGTLVTVSS |
| – | > 200 fold | PRO1124: 38-02-A04 sc06 Full scDb-i/33_03_G02 sc01 scDb-o (bispecific antibody) DIQMTQSPSSLSASVGDRVTITCQASQSINDYLAWYQQKPGKAPKLLIYKASTLASGVPSRFSGSGSGTDFTLTISSLQPEDFATYYCQQGYIITDIDNVFGTGTKVTVLGGGGGSQVQLQESGPGLVKPSETLSLTCKASGFSFSNSYWICWVRQPPGKGLEWIGCTFVGSSDSTYYANWAKGRVTISKDSSKNQVSLKLSSVTAADTAVYFCARHPSDAVYGYANNLWGQGTLVTVSSGGGGSGGGGSGGGGSGGGGSLQMTQSPSSLSASVGDRVTITCQASQSINNVLAWYQQKPGKPPKLLIYRASTLASGVPSRFSGSGSGTDFTLTISSLQPEDFATYYCQSSYGNYGDFGTGTKVTVLGGGGGSQVQLQESGPGLVKPSETLSLTCKVSGFSFSSGYDMCWIRQPPGKGLEWIGCVVAGSVDITYYASWAKGRVTISVDSSKNQFSLKLSSVTAADTAVYYCARKDAYSDAFNLWGQGTLVTVSS |
